Patent publication US20160324984A1 (published 2016)

T1: Ac-PYY(PEG3-Dig) (N-terminal acetyl; Lys 2 side chain carries PEG3-digoxigenin-3-carboxymethyl; Pqa at position 3; N-methyl-Arg at position 14; C-terminal amide)
T1 construct: also called DIG-PYY; Digoxigenin-PYY(3-36) conjugate
T1 peptide: IKXRHYLNWVTRQXY

B1: murine anti-digoxigenin antibody (hybridoma-derived) (antibody, mouse IgG1, V domains shown)
VH: EVQLVESGGGLVKPGGSLKLSCAVSGFTFSDYAMSWIRQTPENRLEWVASINIGATYAYYPDSVKGRFTISRDNAKNTLFLQMSSLGSEDTAMYYCARPGSPYEYDKAYYSMAYWGPGTSVTVSS
VL: DVQMTQSTSSLSASLGDRVTISCRASQDIKNYLNWYQQKPGGTVKLLIYYSSTLLSGVPSRFSGRGSGTDFSLTITNLEREDIATYFCQQSITLPPTFGGGTKLEIK
B2: anti-helicar motif amino acid sequence antibody (0019) (antibody, V domains shown)
V domain 1: QAVVTQEPSLTVSPGGTVTLTCGSSTGAVTTSNYASWVQQKPGQAFTGLIGGTNNRAPWTPARFSGSLLGGKAALTLSGAQPEDEAEYYCALWYSNHWVFGGGTKLTVL
V domain 2: DAVVTQESALTTSPGETVTLTCRSSTGAVTTSNYASWVQEKPDHLFTGLIGGTNNRAPGVPARFSGSLIGDKAALTITGAQTEDEAIYFCALWYSNHWVFGGGTKLTVL

Experiments:
Ac-PYY(PEG3-Dig) = target: T1, Ac-PYY(PEG3-Dig); test: size exclusion chromatography and SEC-MALLS; binding through digoxigenin
[1] = target: PYY_helicar (helicar motif engineered PYY); test: column binding [Kd]; method not stated
Sequence of PYY_helicar (helicar motif engineered PYY) (peptide, as listed by the source, change not shown): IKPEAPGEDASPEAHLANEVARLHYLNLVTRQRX

[2] = target: PYY_helicar (helicar motif engineered PYY); test: SEC-MALLS

Row | Binder | binding result (Ac-PYY(PEG3-Dig)) | Kd [1] [nM] | stoichiometry of the complex (peptides on one bivalent antibody) (peptides per antibody) [2]
1 | B1 | binds | – | –
2 | B2 | – | 12 | 1.6
